Laboratory results: patent US20180371033A1, “THERAPEUTIC PEPTIDES AND METHODS OF USE THEREOF” (priority 2015, published 2018)

How the values were obtained:
[1] = for Blood (densitometric signal in the heart blood) / Brain (percentage of signal in that tissue compared to the signal detected in the heart blood): 14C-radiolabeled peptide, tail vein injection, kidneys ligated, target three hours circulation
Protocol: This example illustrates the dosing of peptide. […] The experiment was done in duplicates.
A target dosage of 20 nmol of each peptide was administered to separate flank sarcoma A204 tumor bearing Female Harlan athymic nude mice while anesthetized. The dosage was adjusted for whole body autoradiography. […] Some animals died after receiving the peptides, possibly due to complications of the anesthesia and surgical procedure used to ligate the kidneys of each mice, or due to toxic effects of some peptides. The circulation time of each peptide varied from animal-to-animal. […] Inulin was used as a negative control, as this polysaccharide is known to not cross the BBB.
At the end of the dosing period, mice were frozen in a hexane/dry ice bath and then frozen in a block of carboxymethylcellulose. Thin, frozen sections of whole animal sagittal slices that include the brain, tumor, liver, kidney, lung, heart, spleen, pancreas, muscle, adipose, gall bladder, upper gastrointestinal track, lower gastrointestinal track, bone, bone marrow, reproductive track, eye, cartilage, stomach, skin, spinal cord, bladder, salivary gland, and other types of tissues were obtained with a microtome, allowed to dessicate in a freezer, and exposed to phosphoimager plates for about ten days.
These plates were developed, and the signal (densitometry) from each organ was normalized to the signal found in the heart blood of each animal. A signal in tissue darker than the signal expected from blood in that tissue indicates accumulation in a region, tissue, structure or cell. Fluoxetine can cross the blood brain barrier, and is a positive control. Inulin cannot cross the blood brain barrier, and is a negative control. FIG. 2 illustrates ^14C signal in the brain and other tissues for the fluoxetine (top) and inulin (bottom) control groups.
Furthermore, the brain contains approximately 3% blood. Thus when comparing the radioactivity signal per area in blood to that in the brain, a signal in the brain that is much higher than 3% of the signal in blood can be attributed to accumulation of the material in the brain through the BBB. A ratio of at least 10% diffuse signal in brain versus blood was chosen as a reference level for high penetration. The densitometric signal can also indicate high concentration within specification locations in the brain, which can indicate crossing the BBB and/or the blood CSF barrier. […] Numbers for blood indicate the densitometric signal in the heart blood. Numbers for the brain indicate the percentage of signal in that tissue compared to the signal detected in the heart blood.

[2] = Brain section autoradiography: peptide homing to ventricles and cerebral spinal fluid; format: in vivo, Female Harlan athymic nude mice; conditions: 14C signal in sagittal/coronal brain sections, 3 hours after administration
Excerpt: The experiment was done in duplicates.

[3] = format: in vivo, mice; conditions: 14C whole body autoradiography
Excerpt: This example describes biodistribution of peptides.
ND indicates the peptide was not detected in that tissue.

Substance: GSGVPINVKCRGSRDCLDPCKKAGMRFGKCINSKCHCTP [SEQ ID NO: 34]
- Blood (densitometric signal in the heart blood) [1]: 6552245640
- Brain (percentage of signal in that tissue compared to the signal detected in the heart blood) [1]: 9.30%
- penetration of the blood brain barrier in comparison with the negative controls ([1]; reference level for high penetration: at least 10% diffuse signal in brain versus blood): highly penetrate the blood brain barrier
- localization of the peptide to specific structures in the brain [2]: specific structures in the brain, such as ventricles and CSF
- Adipose (percentage of signal compared to blood in the heart) [3]: 11.69%
- Gall bladder (percentage of signal compared to blood in the heart) [3]: 35.52%
- Liver (percentage of signal compared to heart blood) [3]: 82.37%
- Lower GI (percentage of signal compared to blood in the heart) [3]: 20.73%
- Lung (percentage of signal compared to heart blood) [3]: 118.19%
- Muscle (percentage of signal compared to blood in the heart) [3]: 34.13%
- Pancreas (percentage of signal compared to blood in the heart) [3]: 30.35%
- Reproductive (tract; percentage of signal compared to heart blood) [3]: 229.69%
- Salivary gland (percentage of signal compared to heart blood) [3]: 57.57%
- Spleen (percentage of signal compared to blood in the heart) [3]: 54.28%
- Upper GI (percentage of signal compared to blood in the heart) [3]: 216.32%

Substance: Inulin [reference compound]
- Blood (densitometric signal in the heart blood) [1]: 900918901.9
- Brain (percentage of signal in that tissue compared to the signal detected in the heart blood) [1]: 3.00%
- Adipose (percentage of signal compared to blood in the heart) [3]: 5.98%
- Gall bladder (percentage of signal compared to blood in the heart) [3]: 18.65%
- Liver (percentage of signal compared to heart blood) [3]: 126.76%
- Lower GI (percentage of signal compared to blood in the heart) [3]: 10.92%
- Lung (percentage of signal compared to heart blood) [3]: 242.98%
- Muscle (percentage of signal compared to blood in the heart) [3]: 19.80%
- Reproductive (tract; percentage of signal compared to heart blood) [3]: 129.37%
- Salivary gland (percentage of signal compared to heart blood) [3]: 27.58%
- Upper GI (percentage of signal compared to blood in the heart) [3]: 382.27%
